The values that follow come from patent US20160176928A1 (Bristol-Myers Squibb, published 2016).

In this assay the target is T1, Recombinant Human PD-L1-TVMV-His, hPDL1(19-239)-TVMV-His (human, UniProt Q9NZQ7 19-239).
T1 construct: also called PD-L1-His; soluble PD-L1
Nature of the assay: HTRF competition of PD-1-Ig binding to PD-L1-His; grade, legend paragraph 524: A=0.10-10 µM. As for the experimental part: Homogenous Time-Resolved Fluorescence (HTRF) Assays of Binding of Soluble PD-1 to Soluble PD-L1. Soluble PD-1 and soluble PD-L1 refers to proteins with carboxyl-end truncations that remove the transmembrane-spanning regions and are fused to heterologous sequences, specifically the Fc portion of the human immunoglobuling G sequence (Ig) or the hexahistidine epitope tag (His). All binding studies were performed in an HTRF assay buffer consisting of dPBS supplemented with 0.1% (w/v) bovine serum albumin and 0.05% (v/v) Tween-20. For the PD-1-Ig/PD-L1-His binding assay, inhibitors were pre-incubated with PD-L1-His (10 nM final) for 15 m in 4 μl of assay buffer, followed by addition of PD-1-Ig (20 nM final) in 1 μl of assay buffer and further incubation for 15m. PD-L1 fusion proteins from either human, cynomologous macaques, mouse, or other species were used. HTRF detection was achieved using europium crypate-labeled anti-Ig monoclonal antibody (1 nM final) and allophycocyanin (APC) labeled anti-His monoclonal antibody (20 nM final). Antibodies were diluted in HTRF detection buffer and 5 μl was dispensed on top of binding reaction. The reaction was allowed to equilibrate for 30 minutes and signal (665 nm/620 nm ratio) was obtained using an EnVision fluorometer. […]
(Time-resolved FRET reads energy transfer from a long-lived donor to a nearby acceptor.)

T1 sequence (Q9NZQ7 other isoform, or with tags, fused parts or gaps limits assumed): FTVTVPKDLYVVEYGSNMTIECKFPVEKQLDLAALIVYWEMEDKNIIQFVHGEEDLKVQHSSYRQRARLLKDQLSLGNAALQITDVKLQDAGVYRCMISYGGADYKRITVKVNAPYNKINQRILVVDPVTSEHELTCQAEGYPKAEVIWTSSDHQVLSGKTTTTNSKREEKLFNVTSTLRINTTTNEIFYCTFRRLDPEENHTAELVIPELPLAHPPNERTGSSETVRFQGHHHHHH

B1: Example 1001 (peptide)
peptide: FANPHLXWSWXXRCG
modifications: not fully specified; N-terminal acetyl group (from chloroacetyl capping) joined as a thioether to the side chain of Cys 14 (macrocycle); N-methyl-Ala at 2; X at 7 = residue from 'Fmoc-Cyclopenty-Gly-OH'; X at 11 and 12 = N-methyl-norleucine; C-terminal amide (Rink resin)
notes: the structure itself is only a drawing (CHEM-US-00006)
In the case of B1, the IC50 (usually the concentration that gives 50% inhibition) was 0.1 to 10 µM.
